According to the RNAGym collection of RNA variant scans (doi:10.7554/elife.80360):

B1: Hairpin Ribozyme (parent)
chain: GUCCUCUUUCACGUGCGCGUGAAAGAGAGAAGUGAACCAGAGAAACACACGUUGUGGUAUAUUACCUGGUA

Variants of: B1
Assay: self-cleavage, relative activity (ratio to wild type); higher = more cleavage; co-transcriptional

Variant	self-cleavage
GUCCUCUUUCACGUCCGCGUGAAAGAGAGAAGUGAACCACAGAAACACACGUUGUGGUAUAUUACCUGGUA	0.125
GUCCUCUUUCACGUCCGCGUGAAAGAGAGAAGUGAACCAUAGAAACACACGUUGUGGUAUAUUACCUGGUA	0.23
GUCCUCUUUCACGUUCGCGUGAAAGAGAGAAGUGAACCAGAGAAACACACGUUGUGGUAUAUUACUUGGUA	0.574
GUCCUCUUUCACGUCCGCGUGAAAGAGAGAAGUGAACCAGAGAAACACACGUUGUGGUAUAUUACAUGGUA	0.144
GUCCUCUUUCACGUCCGCGUAAAAGAGAGAAGUGAACCAGAGAAACACACGUUGUGGUAUAUUACCUGGUA	0.76
GUCCUCUUUCACGUUCGCGUGACAGAGAGAAGUGAACCAGAGAAACACACGUUGUGGUAUAUUACCUGGUA	1.14
GUCCUCUUUCACGUUCGCGUGAGAGAGAGAAGUGAACCAGAGAAACACACGUUGUGGUAUAUUACCUGGUA	0.87
GUCCUCUUUCACGUUCGCGUGAUAGAGAGAAGUGAACCAGAGAAACACACGUUGUGGUAUAUUACCUGGUA	0.918
GUCCUCUUUCACGUCCGCGUGAAAGAGAGAAGUGAACCAGAGAAACACAAGUUGUGGUAUAUUACCUGGUA	0.169
GUCCUCUUUCACGUCCGCGUGAAAGAGAGAAGUGAACCAGAGAAACACAGGUUGUGGUAUAUUACCUGGUA	0.184
GUCCUCUUUCACGUCCGCGUGAAAGAGAGAAGUGAACCAGAGAAACACAUGUUGUGGUAUAUUACCUGGUA	0.47
GUCCUCUUUCACGUCCGCGUGAAAGAGAGAAGUGAACCAGAGAAACACACGUUGUGGUAUAUUUCCUGGUA	0.186
GUCCUCUUUCACGUUCGCGUGAAAGAGAGGAGUGAACCAGAGAAACACACGUUGUGGUAUAUUACCUGGUA	0.122
GUCCUCUUUCACGUUCGCGUGAAAGAGAGCAGUGAACCAGAGAAACACACGUUGUGGUAUAUUACCUGGUA	0.173
GUCCUCUUUCACGUCCGCGUGAAAGAGAGAAGUGAACCAGAGAAACACACGUUGUGGUAUAAUACCUGGUA	0.14
GUCCUCUUUCACGUCCGCGUGAAACAGAGAAGUGAACCAGAGAAACACACGUUGUGGUAUAUUACCUGGUA	0.687
GUCCUCUUUCACGUCCGCGUGAAAGAGAGAAGUGAACCAGAGAAACACACGUUGUGGUAUAUUAACUGGUA	0.928
GUCCUCUUUCACGUCCGCGUGAAAGAGAGAAGUGAACCAGAGAAACACACGUUGUGGUAUAUUACCUGGAA	0.848
GUCCUCUUUCACGUCCGAGUGAAAGAGAGAAGUGAACCAGAGAAACACACGUUGUGGUAUAUUACCUGGUA	1.18
GUCCUCUUUCACGUCCGCGUGAAAGAGAGAAGUGAACCAGAGAAACAGACGUUGUGGUAUAUUACCUGGUA	0.109
GUCCUCUUUCACGUCCGCGUGAAAGAGAGAAGUGAACCAGAGAAACACACGUUGUGGUAGAUUACCUGGUA	0.466
GUCCUCUUUCACGUCCGCGUGAAAGAGAGAAGUGAACCAGAGAAACACACGUUGUGAUAUAUUACCUGGUA	0.24
GUCCUCUUUCACGUUCACGUGAAAGAGAGAAGUGAACCAGAGAAACACACGUUGUGGUAUAUUACCUGGUA	1.05
GUCCUCUUUCACGUUCGCGUGAAAGAGAGAAGUGAACCCGAGAAACACACGUUGUGGUAUAUUACCUGGUA	0.7
GUCCUCUUUCACGUCCGCGUGAAAGAGAGAAGUGAACCAGAGAAACACACGUUGUGGUAUAUUACCUAGUA	0.324
GUCCUCUUUCACGUCCGCGUGAAAGAGAGAAGUGAACCAGAGAAACACACGUUGUGGCAUAUUACCUGGUA	0.974

Variant	self-cleavage
GUCCUCUUUCACGUCCGCGUGAAAGAGAGAAGUGAACCAGAGAAACACACGUUGUGGAAUAUUACCUGGUA	0.751
GUCCUCUUUCACGUUCGCGUGAAAGAGAGAAGUGAACCAGAGAAACACACGUUGUGGUUUAUUACCUGGUA	0.0728
GUCCUCUUUCACGUUCGCGUGAAAGAGAGAAGUGAACCAGAGAAACACACGUUGUGGUAUGUUACCUGGUA	0.164
GUCCUCUUUCACGUUCGCGUGAAAGAGAGAAGUGAACCAGAGAAACACACGUUGUGGUAUUUUACCUGGUA	0.182
GUCCUCUUUCACGUCCGCGUGAAAGAGAGAAGUGAACCAGAGAAACACACGUUGUGGUAUAUUACCUGCUA	0.275
GUCCUCUUUCACGUCCGCGUGAAAGAGAGAAGUGAACCAGAGAAACACACGUUGUGGUAUAUUACCUGAUA	0.414
GUCCUCUUUCACGUUCGCGUGAAAGAGAGAAGUGAACCAGAGAAAAACACGUUGUGGUAUAUUACCUGGUA	0.167
GUCCUCUUUCACGUUCGCGUGAAAGAGAGAAGUGAACCAGAGAAACACGCGUUGUGGUAUAUUACCUGGUA	0.539
GUCCUCUUUCACGUCCGCGUGAAAGAGAGAAGUGAACCAGAGAAACACACGUUUUGGUAUAUUACCUGGUA	0.647
GUCCUCUUUCACGUUCGCGUGAAAUAGAGAAGUGAACCAGAGAAACACACGUUGUGGUAUAUUACCUGGUA	0.778
GUCCUCUUUCACGUUCGCGUGAAAGAGAGAAGUGAACCAGAGAGACACACGUUGUGGUAUAUUACCUGGUA	0.0895
GUCCUCUUUCACGUUCGCGUGAAAGAGAGAAGUGAACCAGAGAUACACACGUUGUGGUAUAUUACCUGGUA	0.174
GUCCUCUUUCACGUUCGCGUGCAAGAGAGAAGUGAACCAGAGAAACACACGUUGUGGUAUAUUACCUGGUA	0.681
GUCCUCUUUCACGUUCGCGUGGAAGAGAGAAGUGAACCAGAGAAACACACGUUGUGGUAUAUUACCUGGUA	1.12
GUCCUCUUUCACGUUGGCGUGAAAGAGAGAAGUGAACCAGAGAAACACACGUUGUGGUAUAUUACCUGGUA	1.09
GUCCUCUUUCACGUUCGCGUAAAAGAGAGAAGUGAACCAGAGAAACACACGUUGUGGUAUAUUACCUGGUA	0.872
GUCCUCUUUCACGUUCGCGUUAAAGAGAGAAGUGAACCAGAGAAACACACGUUGUGGUAUAUUACCUGGUA	0.868
GUCCUCUUUCACGUUCGCGUCAAAGAGAGAAGUGAACCAGAGAAACACACGUUGUGGUAUAUUACCUGGUA	0.829
GUCCUCUUUCACGUUCGCCUGAAAGAGAGAAGUGAACCAGAGAAACACACGUUGUGGUAUAUUACCUGGUA	1
GUCCUCUUUCACGUCCGCGUGAAAGAGAGAAGUGAACUAGAGAAACACACGUUGUGGUAUAUUACCUGGUA	0.6
GUCCUCUUUCACGUCCGCGUGAAAGAGAGAAGUGAACCAGAGAAACACACGUUGUAGUAUAUUACCUGGUA	0.129
GUCCUCUUUCACGUUCGCGUGAAAGAGAGAAGUGAACCAGAGAAACACAUGUUGUGGUAUAUUACCUGGUA	0.49
GUCCUCUUUCACGUCCGCGUGAAAGAAAGAAGUGAACCAGAGAAACACACGUUGUGGUAUAUUACCUGGUA	0.555
GUCCUCUUUCACGUUCGCGUGAAAGAGAGAAGUGAACCAGAGAAACACACGUUGUGGUAUAUUAUCUGGUA	0.33
GUCCUCUUUCACGUUCGCGUGAAAGAGAGAGGUGAACCAGAGAAACACACGUUGUGGUAUAUUACCUGGUA	0.795
GUCCUCUUUCACGUUCGCGUGAAAGAGAGAUGUGAACCAGAGAAACACACGUUGUGGUAUAUUACCUGGUA	0.232

Variant	self-cleavage
GUCCUCUUUCACGUCCGCGUGAAAGAGAGAAGUGAACCAGACAAACACACGUUGUGGUAUAUUACCUGGUA	0.369
GUCCUCUUUCACGUUCGCGUGAAAGAGAGAAGUGUACCAGAGAAACACACGUUGUGGUAUAUUACCUGGUA	0.842
GUCCUCUUUCACGUUCGCGUGAAAGAGAGAAGUGAACCAGAGAAACACACGUUGUGGUAUAUUACCUGGUA	1.08
GUCCUCUUUCACGUCCGCGUGAAAGAGAGAAGUGAACCAGAGAAACACACGUUGUGGUAUAUUACCUGGUU	0.793
GUCCUCUUUCACGUUCGCGUGAAAGAGAGAAGUGAACCAGAGAAACACACGUUGUGGUAUAUUUCCUGGUA	0.139
GUCCUCUUUCACGUUCGCGUGAAAGAGAGAAGUGACCCAGAGAAACACACGUUGUGGUAUAUUACCUGGUA	0.839
GUCCUCUUUCACGUUCGCGUGAAAGAGAGAAGUGAUCCAGAGAAACACACGUUGUGGUAUAUUACCUGGUA	0.606
GUCCUCUUUCACGUCAGCGUGAAAGAGAGAAGUGAACCAGAGAAACACACGUUGUGGUAUAUUACCUGGUA	1.1
GUCCUCUUUCACGUCCGCGUGAAAGAGAGAAGUGAACCAGAGAAACACACGUUGUGGUAUAUGACCUGGUA	0.127
GUCCUCUUUCACGUCCGCGUGAAAGAGAGAAGUGAACCAGAGAAACACACGUUGUGGUAUAUUACCGGGUA	0.294
GUCCUCUUUCACGUUCGCGUGAAAGAGAGAAGUGAACCAGAGAACCACACGUUGUGGUAUAUUACCUGGUA	0.169
GUCCUCUUUCACGUUCGCGUGAAAGAGAGAAGUGAACCAGAGAAGCACACGUUGUGGUAUAUUACCUGGUA	0.184
GUCCUCUUUCACGUCCGCUUGAAAGAGAGAAGUGAACCAGAGAAACACACGUUGUGGUAUAUUACCUGGUA	0.953
GUCCUCUUUCACGUCCGCCUGAAAGAGAGAAGUGAACCAGAGAAACACACGUUGUGGUAUAUUACCUGGUA	0.786
GUCCUCUUUCACGUUCGCGUGAAAGAGAGAAGUGAACGAGAGAAACACACGUUGUGGUAUAUUACCUGGUA	0.149
GUCCUCUUUCACGUUCGCGUGAAAGAGAGAAGUGAACCAGCGAAACACACGUUGUGGUAUAUUACCUGGUA	1.11
GUCCUCUUUCACGUUCGCGUGAAAGAGAGAAGUGAACCAGUGAAACACACGUUGUGGUAUAUUACCUGGUA	1.41
GUCCUCUUUCACGUCCGCGUGAAAGAGAGAAGCGAACCAGAGAAACACACGUUGUGGUAUAUUACCUGGUA	0.233
GUCCUCUUUCACGUCCGCGUGAAAGAGAGAAGGGAACCAGAGAAACACACGUUGUGGUAUAUUACCUGGUA	0.0645
GUCCUCUUUCACGUUCGCGUGAAAGAGAGAAGUGAACCAGAGAAACCCACGUUGUGGUAUAUUACCUGGUA	0.324
GUCCUCUUUCACGUUCGCGUGAAAGAGAGAAGUGAACCAGAGAAACUCACGUUGUGGUAUAUUACCUGGUA	0.215
GUCCUCUUUCACGUCCGCGUGAAAGAGAGAAGUGAACCAGAGAAACACACGCUGUGGUAUAUUACCUGGUA	1.05
GUCCUCUUUCACGUCCGCGUGAAAGAGAGAAGUGAACCAGAGAAACACACGAUGUGGUAUAUUACCUGGUA	1.19
GUCCUCUUUCACGUCCGCGUGAAAGAGAGAAGUGAACCAGAGAAAAACACGUUGUGGUAUAUUACCUGGUA	0.136
